Laboratory results published in IntAct's records for PubMed 38057552.

B1: Sodium/glucose cotransporter 2 (Homo sapiens), P31639 (parent)
chain: MEEHTEAGSAPEMGAQKALIDNPADILVIAAYFLLVIGVGLWSMCRTNRGTVGGYFLAGRSMVWWPVGASLFASNIGSGHFVGLAGTGAASGLAVAGFEWNALFVVLLLGWLFAPVYLTAGVITMPQYLRKRFGGRRIRLYLSVLSLFLYIFTKISVDMFSGAVFIQQALGWNIYASVIALLGITMIYTVTGGLAALMYTDTVQTFVILGGACILMGYAFHEVGGYSGLFDKYLGAATSLTVSEDPAVGNISSFCYRPRPDSYHLLRHPVTGDLPWPALLLGLTIVSGWYWCSDQVIVQRCLAGKSLTHIKAGCILCGYLKLTPMFLMVMPGMISRILYPDEVACVVPEVCRRVCGTEVGCSNIAYPRLVVKLMPNGLRGLMLAVMLAALMSSLASIFNSSSTLFTMDIYTRLRPRAGDRELLLVGRLWVVFIVVVSVAWLPVVQAAQGGQLFDYIQAVSSYLAPPVSAVFVLALFVPRVNEQGAFWGLIGGLLMGLARLIPEFSFGSGSCVQPSACPAFLCGVHYLYFAIVLFFCSGLLTLTVSLCTAPIPRKHLHRLVFSLRHSKEEREDLDADEQQGSSLPVQNGCPESAMEMNEPQAPAPSLFRQCLLWFCGMSRGGVGSPPPLTQEEAAAAARRLEDISEDPSWARVVNLNALLMMAVAVFLWGFYA
partner: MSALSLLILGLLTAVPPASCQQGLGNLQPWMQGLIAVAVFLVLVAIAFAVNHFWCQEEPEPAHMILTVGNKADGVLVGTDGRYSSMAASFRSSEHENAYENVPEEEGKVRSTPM

Variants of: B1
Details: with pdz1i_human PDZK1IP1, Q13113

Effect of a mutation on the interaction, with no effect:
S74A
D201A
F98A
